Results published in US20220048967A1 (published 2022).
Numbered stars: 1 amine (or outer) side, 2 acyl side, 3 side chain; on linkers, the order of the positions; unused ones are H or OH. Square brackets hold non-standard residues; d marks the D form. Side chains are listed from the residue outwards. Ends that are not written are not given here. * marks the point of attachment. C20 diacid = O=C(O)CCCCCCCCCCCCCCCCCCC(=O)*; αMePhe(2-F) = C[C@](N)(Cc1ccccc1F)C(=O)O; γGlu = O=C(O)[C@H](CCC(=O)[*:2])N[*:1]; αMeF = C[C@](N)(Cc1ccccc1)C(=O)O; AEEA = NCCOCCOCC(=O)O; Aib = CC(C)(N)C(=O)O

Columns and labels:
[1] = biological target: T1, human gastric inhibitory peptide receptor (GIPR) (human, UniProt P48546 22-466); experiment: cell-based or functional assay
T1 sequence (looked up): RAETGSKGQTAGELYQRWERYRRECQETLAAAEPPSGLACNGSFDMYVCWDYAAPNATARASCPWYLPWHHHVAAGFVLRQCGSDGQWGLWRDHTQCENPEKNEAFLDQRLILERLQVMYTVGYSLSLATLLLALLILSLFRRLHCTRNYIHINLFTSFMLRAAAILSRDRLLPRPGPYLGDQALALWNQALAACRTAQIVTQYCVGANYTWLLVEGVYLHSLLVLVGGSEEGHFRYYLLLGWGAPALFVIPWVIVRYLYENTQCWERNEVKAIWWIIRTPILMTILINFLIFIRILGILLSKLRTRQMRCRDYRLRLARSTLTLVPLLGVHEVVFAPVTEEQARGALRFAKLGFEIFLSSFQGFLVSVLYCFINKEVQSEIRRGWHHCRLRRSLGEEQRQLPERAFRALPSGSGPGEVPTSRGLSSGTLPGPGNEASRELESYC

[2] = biological target: human GLP-1 receptor (GLP-1R) (human, UniProt P43220 24-463); experiment: cell-based or functional assay

B1: Example 160 (peptide)
peptide: YXEGTXTSDXSIXLDEKAQXTFIXYLIEGGPSSGAPPPS
modifications: Y-Aib-EGT-αMeF(2F)-TSD-Aib-SI-αMeF-LDEK((2-[2-(2-Amino-ethoxy)-ethoxy]-acetyl)2-(γ-Glu)-CO-(CH2)18-CO2H)AQ-Aib-TFI-(D-Glu)-YLIEGGPSSGAPPPS-NH2
B1 was tested, and the “hGIPR cAMP EC50 ratio” value [1] was 0.00712, the “hGIPR cAMP Rel EC50” value [1] was 21 nM and the “hGLP1R cAMP EC50 ratio” value [2] was 1.24. The “hGLP1R cAMP Rel EC50” value [2] was 0.0461 nM.

B2: Example 151 (peptide)
peptide: Y[Aib]EGT[αMePhe(2-F)]TSDYSIXLDEKAQ[Aib]EFIPYLIEGGPSSGAPPPS-NH2
modifications: not fully specified (residues 13, 17); printed as Y-Aib-EGT-αMeF(2F)-TSDYSI-αMeF-LDEK((2-[2-(2-Amino-ethoxy)-ethoxy]-acetyl)2-(γ-Glu)-CO-(CH2)18-CO2H)AQ-Aib-EFIPYLIEGGPSSGAPPPS-NH2
For B2, the “hGIPR cAMP EC50 ratio” value [1] was 0.262, the “hGIPR cAMP Rel EC50” value [1] was 0.41 nM and the “hGLP1R cAMP EC50 ratio” value [2] was 0.0278. For the same binder, the “hGLP1R cAMP Rel EC50” value [2] was 1.6 nM.

B3: Example 150 (peptide)
peptide: Y[Aib]EGT[αMePhe(2-F)]TSDYSIXLDEKAQ[Aib]EFISYLIEGGPSSGAPPPS-NH2
modifications: not fully specified (residues 13, 17); printed as Y-Aib-EGT-αMeF(2F)-TSDYSI-αMeF-LDEK((2-[2-(2-Amino-ethoxy)-ethoxy]-acetyl)2-(γ-Glu)-CO-(CH2)18-CO2H)AQ-Aib-EFISYLIEGGPSSGAPPPS-NH2
With B3 the “hGIPR cAMP EC50 ratio” value [1] was 2.64, the “hGIPR cAMP Rel EC50” value [1] was 0.0511 nM and the “hGLP1R cAMP EC50 ratio” value [2] was 0.79. For the same binder, the “hGLP1R cAMP Rel EC50” value [2] was 0.0575 nM.

B4: Example 154 (peptide)
peptide: Y[Aib]EGT[αMePhe(2-F)]TSDHSIXLDEKAQ[Aib]EFIEYLIEGGPSSGAPPPS-NH2
modifications: not fully specified (residues 13, 17); printed as Y-Aib-EGT-αMeF(2F)-TSDHSI-αMeF-LDEK((2-[2-(2-Amino-ethoxy)-ethoxy]-acetyl)2-(γ-Glu)-CO-(CH2)18-CO2H)AQ-Aib-EFIEYLIEGGPSSGAPPPS-NH2
B4 was tested, and the “hGIPR cAMP EC50 ratio” value [1] was 5.9, the “hGIPR cAMP Rel EC50” value [1] was 0.0266 nM and the “hGLP1R cAMP EC50 ratio” value [2] was 1.23. The “hGLP1R cAMP Rel EC50” value [2] was 0.0393 nM.

B5: Example 149 (peptide)
peptide: Y[Aib]EGT[αMePhe(2-F)]TSDYSIXLDEKAQ[Aib]EFIVYLIEGGPSSGAPPPS-NH2
modifications: not fully specified (residues 13, 17); printed as Y-Aib-EGT-αMeF(2F)-TSDYSI-αMeF-LDEK((2-[2-(2-Amino-ethoxy)-ethoxy]-acetyl)2-(γ-Glu)-CO-(CH2)18-CO2H)AQ-Aib-EFIVYLIEGGPSSGAPPPS-NH2
With B5 the “hGIPR cAMP EC50 ratio” value [1] was 1.82, the “hGIPR cAMP Rel EC50” value [1] was 0.0711 nM and the “hGLP1R cAMP EC50 ratio” value [2] was 0.484. For the same binder, the “hGLP1R cAMP Rel EC50” value [2] was 0.0916 nM.

B6: Example 159 (peptide)
peptide: Y[Aib]EGT[αMePhe(2-F)]TSD[αMeF]SIXLDEKAQ[Aib]EFIEYLIEGGPSSGAPPPS-NH2
modifications: not fully specified (residues 13, 17); printed as Y-Aib-EGT-αMeF(2F)-TSD-αMeF-SI-αMeF-LDEK((2-[2-(2-Amino-ethoxy)-ethoxy]-acetyl)2-(γ-Glu)-CO-(CH2)18-CO2H)AQ-Aib-EFIEYLIEGGPSSGAPPPS-NH2
B6 was tested, and the “hGIPR cAMP EC50 ratio” value [1] was 0.039, the “hGIPR cAMP Rel EC50” value [1] was 4.6 nM and the “hGLP1R cAMP EC50 ratio” value [2] was 0.176. The “hGLP1R cAMP Rel EC50” value [2] was 0.33 nM.

B7: Example 161 (peptide)
peptide: Y[Aib]EGT[αMePhe(2-F)]TSDHSI[αMeF]LDEK([AEEA-AEEA-γGlu-γGlu-C20 diacid])AQ[Aib]TFI[dE]YLIEGGPSSG-NH2
modifications: N-terminus assumed
SMILES: CC[C@H](C)[C@H](NC(=O)[C@H](CC(C)C)NC(=O)[C@H](Cc1ccc(O)cc1)NC(=O)[C@@H](CCC(=O)O)NC(=O)[C@@H](NC(=O)[C@H](Cc1ccccc1)NC(=O)[C@@H](NC(=O)C(C)(C)NC(=O)[C@H](CCC(N)=O)NC(=O)[C@H](C)NC(=O)[C@H](CCCCNC(=O)COCCOCCNC(=O)COCCOCCNC(=O)CC[C@H](NC(=O)CC[C@H](NC(=O)CCCCCCCCCCCCCCCCCCC(=O)O)C(=O)O)C(=O)O)NC(=O)[C@H](CCC(=O)O)NC(=O)[C@H](CC(=O)O)NC(=O)[C@H](CC(C)C)NC(=O)[C@](C)(Cc1ccccc1)NC(=O)[C@@H](NC(=O)[C@H](CO)NC(=O)[C@H](Cc1c[nH]cn1)NC(=O)[C@H](CC(=O)O)NC(=O)[C@H](CO)NC(=O)[C@@H](NC(=O)[C@](C)(Cc1ccccc1F)NC(=O)[C@@H](NC(=O)CNC(=O)[C@H](CCC(=O)O)NC(=O)C(C)(C)NC(=O)[C@@H](N)Cc1ccc(O)cc1)[C@@H](C)O)[C@@H](C)O)[C@@H](C)CC)[C@@H](C)O)[C@@H](C)CC)C(=O)N[C@@H](CCC(=O)O)C(=O)NCC(=O)NCC(=O)N1CCC[C@H]1C(=O)N[C@@H](CO)C(=O)N[C@@H](CO)C(=O)NCC(N)=O
In the case of B7, the “hGIPR cAMP EC50 ratio” value [1] is reported as 0.706, the “hGIPR cAMP Rel EC50” value [1] is reported as 0.254 nM and the “hGLP1R cAMP EC50 ratio” value [2] is reported as 0.0121. The “hGLP1R cAMP Rel EC50” value [2] was 4.8 nM.

B8: Example 152 (peptide)
peptide: Y[Aib]EGT[αMePhe(2-F)]TSDYSIXLDEKAQ[Aib]EFI[Aib]YLIEGGPSSGAPPPS-NH2
modifications: not fully specified (residues 13, 17); printed as Y-Aib-EGT-αMeF(2F)-TSDYSI-αMeF-LDEK((2-[2-(2-Amino-ethoxy)-ethoxy]-acetyl)2-(γ-Glu)-CO-(CH2)18-CO2H)AQ-Aib-EFI-Aib-YLIEGGPSSGAPPPS-NH2
B8 was tested, and the “hGIPR cAMP EC50 ratio” value [1] was 2.57, the “hGIPR cAMP Rel EC50” value [1] was 0.0504 nM and the “hGLP1R cAMP EC50 ratio” value [2] was 0.484. The “hGLP1R cAMP Rel EC50” value [2] was 0.0915 nM.

B9: Example 153 (peptide)
peptide: Y[Aib]EGT[αMePhe(2-F)]TSDYSIXLDEKAQ[Aib]EFIHYLIEGGPSSGAPPPS-NH2
modifications: not fully specified (residues 13, 17); printed as Y-Aib-EGT-αMeF(2F)-TSDYSI-αMeF-LDEK((2-[2-(2-Amino-ethoxy)-ethoxy]-acetyl)2-(γ-Glu)-CO-(CH2)18-CO2H)AQ-Aib-EFIHYLIEGGPSSGAPPPS-NH2
With B9 the “hGIPR cAMP EC50 ratio” value [1] was 1.7, the “hGIPR cAMP Rel EC50” value [1] was 0.0634 nM and the “hGLP1R cAMP EC50 ratio” value [2] was 0.501. For the same binder, the “hGLP1R cAMP Rel EC50” value [2] was 0.0904 nM.
